Test results reported in IntAct's records for PubMed 31515488.

B1: E3 ubiquitin-protein ligase TRIM39 (Homo sapiens), Q9HCM9 (parent)
chain: MAETSLLEAGASAASTAAALENLQVEASCSVCLEYLKEPVIIECGHNFCKACITRWWEDLERDFPCPVCRKTSRYRSLRPNRQLGSMVEIAKQLQAVKRKIRDESLCPQHHEALSLFCYEDQEAVCLICAISHTHRAHTVVPLDDATQEYKEKLQKCLEPLEQKLQEITRCKSSEEKKPGELKRLVESRRQQILREFEELHRRLDEEQQVLLSRLEEEEQDILQRLRENAAHLGDKRRDLAHLAAEVEGKCLQSGFEMLKDVKSTLEKNIPRKFGGSLSTICPRDHKALLGLVKEINRCEKVKTMEVTSVSIELEKNFSNFPRQYFALRKILKQLIADVTLDPETAHPNLVLSEDRKSVKFVETRLRDLPDTPRRFTFYPCVLATEGFTSGRHYWEVEVGDKTHWAVGVCRDSVSRKGELTPLPETGYWRVRLWNGDKYAATTTPFTPLHIKVKPKRVGIFLDYEAGTLSFYNVTDRSHIYTFTDTFTEKLWPLFYPGIRAGRKNAAPLTIRPPTDWE
B2: Myeloid leukemia factor 1 (Homo sapiens), P58340 (parent)
chain: MFRMLNSSFEDDPFFSESILAHRENMRQMIRSFSEPFGRDLLSISDGRGRAHNRRGHNDGEDSLTHTDVSSFQTMDQMVSNMRNYMQKLERNFGQLSVDPNGHSFCSSSVMTYSKIGDEPPKVFQASTQTRRAPGGIKETRKAMRDSDSGLEKMAIGHHIHDRAHVIKKSKNKKTGDEEVNQEFINMNESDAHAFDEEWQSEVLKYKPGRHNLGNTRMRSVGHENPGSRELKRREKPQQSPAIEHGRRSNVLGDKLHIKGSSVKSNKK
partner: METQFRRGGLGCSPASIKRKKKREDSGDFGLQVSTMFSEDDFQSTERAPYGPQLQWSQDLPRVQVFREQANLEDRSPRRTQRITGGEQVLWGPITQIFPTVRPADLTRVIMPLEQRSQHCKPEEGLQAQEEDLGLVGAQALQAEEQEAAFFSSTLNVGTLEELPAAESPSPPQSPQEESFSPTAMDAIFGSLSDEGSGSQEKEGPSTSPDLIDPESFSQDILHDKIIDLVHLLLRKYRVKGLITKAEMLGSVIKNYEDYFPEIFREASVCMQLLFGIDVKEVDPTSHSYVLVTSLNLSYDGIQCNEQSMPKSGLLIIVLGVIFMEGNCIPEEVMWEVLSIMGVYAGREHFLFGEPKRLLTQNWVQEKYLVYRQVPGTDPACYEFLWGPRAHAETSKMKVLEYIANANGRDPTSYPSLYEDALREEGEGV
B3: Notch homolog 2 N-terminal-like protein A (Homo sapiens), Q7Z3S9 (parent)
chain: MCVTYHNGTGYCKCPEGFLGEYCQHRDPCEKNRCQNGGTCVAQAMLGKATCRCASGFTGEDCQYSTSHPCFVSRPCLNGGTCHMLSRDTYECTCQVGFTGKECQWTDACLSHPCANGSTCTTVANQFSCKCLTGFTGQKCETDVNECDIPGHCQHGGTCLNLPGSYQCQCLQGFTGQYCDSLYVPCAPSPCVNGGTCRQTGDFTFECNCLPETVRRGTELWERDREVWNGKEHDEN
partner: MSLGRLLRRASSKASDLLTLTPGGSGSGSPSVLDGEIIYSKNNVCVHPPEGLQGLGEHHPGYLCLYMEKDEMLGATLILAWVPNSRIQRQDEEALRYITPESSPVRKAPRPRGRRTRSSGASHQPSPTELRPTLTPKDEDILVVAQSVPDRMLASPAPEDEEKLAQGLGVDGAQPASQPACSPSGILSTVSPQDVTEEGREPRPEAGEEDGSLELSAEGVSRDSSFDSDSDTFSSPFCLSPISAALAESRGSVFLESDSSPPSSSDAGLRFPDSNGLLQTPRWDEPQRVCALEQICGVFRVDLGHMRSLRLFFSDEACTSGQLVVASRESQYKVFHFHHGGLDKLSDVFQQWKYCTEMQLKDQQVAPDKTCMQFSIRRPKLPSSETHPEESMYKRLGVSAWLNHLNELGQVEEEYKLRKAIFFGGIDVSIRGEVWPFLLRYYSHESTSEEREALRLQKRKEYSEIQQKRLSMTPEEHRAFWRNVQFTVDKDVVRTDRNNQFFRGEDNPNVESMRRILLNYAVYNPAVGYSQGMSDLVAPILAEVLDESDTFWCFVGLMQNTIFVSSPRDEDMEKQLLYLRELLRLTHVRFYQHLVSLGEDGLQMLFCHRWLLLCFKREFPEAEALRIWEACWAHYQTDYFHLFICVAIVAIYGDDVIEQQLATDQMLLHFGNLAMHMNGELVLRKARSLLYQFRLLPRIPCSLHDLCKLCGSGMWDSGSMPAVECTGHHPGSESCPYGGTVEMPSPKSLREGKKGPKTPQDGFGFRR
B4: NAD kinase (Homo sapiens), O95544 (parent)
chain: MEMEQEKMTMNKELSPDAAAYCCSACHGDETWSYNHPIRGRAKSRSLSASPALGSTKEFRRTRSLHGPCPVTTFGPKACVLQNPQTIMHIQDPASQRLTWNKSPKSVLVIKKMRDASLLQPFKELCTHLMEENMIVYVEKKVLEDPAIASDESFGAVKKKFCTFREDYDDISNQIDFIICLGGDGTLLYASSLFQGSVPPVMAFHLGSLGFLTPFSFENFQSQVTQVIEGNAAVVLRSRLKVRVVKELRGKKTAVHNGLGENGSQAAGLDMDVGKQAMQYQVLNEVVIDRGPSSYLSNVDVYLDGHLITTVQGDGVIVSTPTGSTAYAAAAGASMIHPNVPAIMITPICPHSLSFRPIVVPAGVELKIMLSPEARNTAWVSFDGRKRQEIRHGDSISITTSCYPLPSICVRDPVSDWFESLAQCLHWNVRKKQAHFEEEEEEEEEG
B5: mRNA-decapping enzyme 1A (Homo sapiens), Q9NPI6 (parent)
chain: MEALSRAGQEMSLAALKQHDPYITSIADLTGQVALYTFCPKANQWEKTDIEGTLFVYRRSASPYHGFTIVNRLNMHNLVEPVNKDLEFQLHEPFLLYRNASLSIYSIWFYDKNDCHRIAKLMADVVEEETRRSQQAARDKQSPSQANGCSDHRPIDILEMLSRAKDEYERNQMGDSNISSPGLQPSTQLSNLGSTETLEEMPSGSQDKSAPSGHKHLTVEELFGTSLPKEQPAVVGLDSEEMERLPGDASQKEPNSFLPFPFEQLGGAPQSETLGVPSAAHHSVQPEITTPVLITPASITQSNEKHAPTYTIPLSPVLSPTLPAEAPTAQVPPSLPRNSTMMQAVKTTPRQRSPLLNQPVPELSHASLIANQSPFRAPLNVTNTAGTSLPSVDLLQKLRLTPQHDQIQTQPLGKGAMVASFSPAAGQLATPESFIEPPSKTAAARVAASASLSNMVLAPLQSMQQNQDPEVFVQPKVLSSAIPVAGAPLVTATTTAVSSVLLAPSVFQQTVTRSSDLERKASSPSPLTIGTPESQRKPSIILSKSQLQDTLIHLIKNDSSFLSTLHEVYLQVLTKNKDNHNL
partner: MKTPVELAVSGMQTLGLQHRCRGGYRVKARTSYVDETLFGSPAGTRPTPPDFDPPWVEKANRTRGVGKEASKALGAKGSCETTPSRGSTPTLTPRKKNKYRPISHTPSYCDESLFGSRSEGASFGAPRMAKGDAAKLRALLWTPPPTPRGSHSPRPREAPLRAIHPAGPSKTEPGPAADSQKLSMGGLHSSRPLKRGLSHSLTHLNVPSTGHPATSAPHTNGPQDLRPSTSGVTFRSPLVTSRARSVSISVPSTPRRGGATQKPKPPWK
B6: Low-density lipoprotein receptor class A domain-containing protein 1 (Homo sapiens), Q5T700 (parent)
chain: MNKVFPQGENGYTAAESKAHPGGEAGGGHLCCSRRGACLSASLLLLLATVAALIALVTILGLPSCTPGAQACITLTNRTGFLCHDQRSCIPASGVCDGVRTCTHGEDEDESLCRDVPQSLPHFLVAHCGDPASWIYSDQKCDGTNNCGDCSDELSPVTVCPPCGPGWWRCPSTFFKYCDCIPRHLCRDHVQHCSDWSDEYACPGP
partner: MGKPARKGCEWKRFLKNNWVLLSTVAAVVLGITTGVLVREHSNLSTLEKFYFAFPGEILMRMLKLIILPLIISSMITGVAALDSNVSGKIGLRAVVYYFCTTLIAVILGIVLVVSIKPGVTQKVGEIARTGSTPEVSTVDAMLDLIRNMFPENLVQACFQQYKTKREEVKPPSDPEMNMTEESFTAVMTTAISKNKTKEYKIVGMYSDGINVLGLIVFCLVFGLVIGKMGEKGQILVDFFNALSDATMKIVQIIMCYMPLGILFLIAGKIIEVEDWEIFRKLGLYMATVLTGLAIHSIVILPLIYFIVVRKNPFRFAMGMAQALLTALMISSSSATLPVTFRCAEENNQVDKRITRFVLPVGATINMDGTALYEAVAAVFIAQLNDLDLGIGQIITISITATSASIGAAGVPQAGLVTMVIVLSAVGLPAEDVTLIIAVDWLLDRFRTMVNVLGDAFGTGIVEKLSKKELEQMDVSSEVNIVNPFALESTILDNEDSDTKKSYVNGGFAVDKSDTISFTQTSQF

Variants of: B1
Details: with znf26_human ZNF26, P17031
Chain of znf26_human ZNF26, P17031 (P17031 whole entry): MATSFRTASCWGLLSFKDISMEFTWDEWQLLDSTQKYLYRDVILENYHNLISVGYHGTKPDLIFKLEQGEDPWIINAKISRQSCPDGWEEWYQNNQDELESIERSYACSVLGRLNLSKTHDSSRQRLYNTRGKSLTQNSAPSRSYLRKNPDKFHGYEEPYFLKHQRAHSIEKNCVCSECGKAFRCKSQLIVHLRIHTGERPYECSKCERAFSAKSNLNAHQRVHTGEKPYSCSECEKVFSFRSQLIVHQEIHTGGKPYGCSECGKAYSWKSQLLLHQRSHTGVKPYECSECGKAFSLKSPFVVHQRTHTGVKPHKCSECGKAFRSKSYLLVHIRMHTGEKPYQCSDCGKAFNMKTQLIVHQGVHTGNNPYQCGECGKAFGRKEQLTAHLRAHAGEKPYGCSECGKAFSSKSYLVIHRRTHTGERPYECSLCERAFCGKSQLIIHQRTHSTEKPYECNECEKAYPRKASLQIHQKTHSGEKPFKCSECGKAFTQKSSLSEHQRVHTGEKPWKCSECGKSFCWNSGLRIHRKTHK

Variant	effect of a mutation on the interaction
L194S	disrupting interaction strength

Variants of: B1
Details: with ccnc_human CCNC

Variant	effect of a mutation on the interaction
L194S	disrupting interaction strength

Variants of: B1
Details: with if4a2_human EIF4A2, Q14240
Chain of if4a2_human EIF4A2, Q14240 (Q14240 whole entry): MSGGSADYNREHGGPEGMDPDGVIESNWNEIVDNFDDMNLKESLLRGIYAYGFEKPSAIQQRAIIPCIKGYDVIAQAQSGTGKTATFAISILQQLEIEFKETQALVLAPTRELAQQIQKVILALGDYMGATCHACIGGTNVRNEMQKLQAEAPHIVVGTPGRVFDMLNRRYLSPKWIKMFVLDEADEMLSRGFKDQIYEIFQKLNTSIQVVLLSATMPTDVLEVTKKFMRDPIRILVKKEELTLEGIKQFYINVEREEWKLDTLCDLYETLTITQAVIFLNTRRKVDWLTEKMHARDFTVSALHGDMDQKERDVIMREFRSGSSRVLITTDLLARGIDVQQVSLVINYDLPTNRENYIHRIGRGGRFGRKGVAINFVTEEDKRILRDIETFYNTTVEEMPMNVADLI

Variant	effect of a mutation on the interaction
L194S	disrupting interaction strength

Variants of: B1
Details: with ub2e2_human UBE2E2, Q96LR5
Chain of ub2e2_human UBE2E2, Q96LR5 (Q96LR5 whole entry): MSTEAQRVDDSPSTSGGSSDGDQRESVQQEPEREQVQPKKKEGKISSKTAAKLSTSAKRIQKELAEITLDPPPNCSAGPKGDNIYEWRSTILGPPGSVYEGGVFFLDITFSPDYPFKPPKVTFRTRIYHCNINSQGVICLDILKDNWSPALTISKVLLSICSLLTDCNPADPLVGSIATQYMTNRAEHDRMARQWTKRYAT

Variant	effect of a mutation on the interaction
L194S	disrupting interaction strength

Variants of: B1
Details: with ub2d3_human UBE2D3, P61077
Chain of ub2d3_human UBE2D3, P61077 (P61077 whole entry): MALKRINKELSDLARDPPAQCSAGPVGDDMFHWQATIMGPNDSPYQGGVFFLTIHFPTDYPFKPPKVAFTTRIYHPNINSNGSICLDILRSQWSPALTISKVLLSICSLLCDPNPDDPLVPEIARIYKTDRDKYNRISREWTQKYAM

Variant	effect of a mutation on the interaction
L194S	disrupting interaction strength

Variants of: B2
Details: with magab_human MAGEA11, P43364

Variant	effect of a mutation on the interaction
P226T	with no effect

Variants of: B3
Details: with tbc16_human TBC1D16, Q8TBP0

Variant	effect of a mutation on the interaction
R74Q	with no effect
A115T	with no effect

Variants of: B4
Details: with sdcb1_human SDCBP

Variant	effect of a mutation on the interaction
R249W	with no effect

Variants of: B5
Details: with rita1_human RITA1, Q96K30

Variant	effect of a mutation on the interaction
P332T	with no effect
A297G	with no effect
Q474H	with no effect

Variants of: B6
Details: with eaa3_human SLC1A1, P43005

Variant	effect of a mutation on the interaction
G105S	with no effect
